These are literature values, as cited in PMC7883480.

One may read the pKd as the negative decadic logarithm of the Kd, by convention in mol/L. As usually defined, the pKi is the negative decadic logarithm of the Ki, by convention in mol/L.

One data set concerns the target CXCR4 (Homo sapiens) (UniProt P61073). Description: radioligand competitive displacement.
Data set [1] has as its target GLP-1 receptor (Homo sapiens) (UniProt P43220). Description: SPA binding assay.
For data set [2], the target named is GIP receptor (Homo sapiens) (UniProt P48546). Description: competitive binding assay.

pKd, pKi: −log10 of the molar value.

On to CXCL12 3-68 (from UniProt P48061), for which, in the data set with CXCR4 (Homo sapiens), the pKd was 6.33. With CXCL12 1-68 (from UniProt P48061), in the data set with CXCR4 (Homo sapiens), the negative-log Kd (pKd) was 8.84. Turning to GLP-1 7-36 (from UniProt P01275), the pKi in data set [1] is 9.99. On to GIP 1-30 (from UniProt P09681), for which the pKi in data set [2] was 9.05. Take GIP 3-30 (from UniProt P09681): the pKi in data set [2] was 8.64. With GLP-1 9-36 (from UniProt P01275), in data set [1], the negative-log Ki (pKi) was 6.81.
